Experiments:
Type in all cases: biochemical, bovine
BSA [1] = molecular target: T1, BSA (Bos taurus, UniProt P02769); test: Tryptic digestion without dye, sub-sampled and quenched with protease inhibitors, then read with epicocconone (Example 8); conditions: no dye during digestion; sub-sampling and quenching with protease inhibitors
T1 construct: purchased Sigma-Aldrich A3059
Method: 1. The trypsin inhibitors, leupeptin and trypsin-inhibitor (soybean) were prepared at a concentration of 1 mM in RO water and 0.48 mg/mL in RO water, respectively. 2. The protein samples were prepared as previously described in Example 6. The reduced and alkylated protein samples were diluted 1:10 in 100 mM bicine buffer (pH 8.4-5). 3. Trypsin (4.62 μg) was added to each protein sample (231 μg/300 μL) at a ratio of 1:50 and the samples were incubated at 37° C. 4. Sub-samples were collected for inhibition of trypsin activity either by leupeptin or by trypsin inhibitor (soybean). • a. Forty-five microlitres of the tryptic digests were sub-sampled at 0, 10, 20, 30, 60, […], 90, and 120 minutes and immediately added to 1.5 mL tubes containing 5 μL of 1 mM leupeptin. The sub-samples treated with leupeptin inhibitor were left at room temperature until fluorescence was read. • b. […] The sub-samples treated with soybean trypsin inhibitor were left at room temperature until fluorescence was read. […] Fluorescence of the sub-samples was read at Ex/Em=540-10/630-10 nm with 10 flashes. […] The fluorescence value was normalised by subtracting basal fluorescence of corresponding controls from the raw fluorescence of the sub-samples. […]

BSA [2] = molecular target: T1, BSA; test: Real-time monitoring of BSA proteolysis with different fluorophores in the presence of detergent (Example 7); conditions: method of example 7, real-time with fluorophore and SDS
Method: • 1 Trypsin and papain digestion was carried out in bicine buffer at pH 8.4 and pH 7.0, respectively. • 2 BSA was prepared in 10 mg/mL in 100 mM bicine buffer. • 3 One hundred microliter of the BSA sample was used for trypsin and papain digestion.
7.2.2 Real-Time Monitoring of Trypsin Digestion with Fluorophores in the Presence of a Detergent • 1. The reduced and denatured BSA sample was diluted 10-fold in 100 mM bicine buffer (25 μL+225 μL bicine buffer). • 2. One hundred microliter of the sample (step 1) was added to a well in a 96-well microtiter plate. Controls included a bicine-based digestion buffer, a trypsin sample or papain only and an undigested BSA sample (no trypsin or no papain). The assay consists of a 4-well sample set for one fluorophore, e.g. SYPROorange. Three sets of samples were prepared in the same manners for the remaining fluorophores, e.g. Nile red, epicocconone and […]. • 3. SYPROorange stock solution was diluted 5000-fold in the bicine buffer (pH 8.4). Nile red and epicocconone and stock solutions were diluted 100-fold in the 100 mM bicine (pH 8.5). ANS was diluted 100-fold in the bicine buffer (pH 7.0). • 4. […] Fluorescence development was monitored in real time every 2 minutes up to 400 minutes using FluoStar (Ex/Em=485/600±10 for SYPROorange; 540±10/630±10 for epicocconone and Nile red; 355/460 for ANS). […]

BSA [3] = molecular target: T1, BSA; test: SDS-PAGE validation of BSA proteolysis in the presence of different fluorophores (Example 7); conditions: after 120 minutes
Source text: The normalised data were used for Prism analysis for obtaining the rate constants. In each case, the protein with fluorophore (open squares) is fitted to a single phase exponential decay (Y=span*exp(−kX)+plateau) and the value for k used as the fixed value for k1 in a two phase exponential decay (Y=span1*exp(−k1X)+span2*exp(−k2X)+plateau) for the protein plus papain (open circles). Through this method it was possible to measure the rate constants for hydrolysis and predict the time point for complete hydrolysis. […] It can be seen from this figure that the bands associated with the protein have disappeared after 120 minutes and that only a faint band for residual papain or trypsin can be seen. In some cases there are also some larger peptide fragments remaining after digestion that are resistant to further hydrolysis.

BSA [4] = molecular target: T1, BSA; test: Tryptic digestion of BSA followed with Nile Red; conditions: Nile Red reporter dye
Method: • As per Example 2 above. • Nile Red (20 mM in ethanol, Sigma-Aldrich, 73189) diluted to 100-fold in 50 mM bicine
As per Example 2 except the Fluorostar plate reader was set to 520 nm excitation and 630 (±10 nm) bandpass emission filter.

BSA [5] = molecular target: T1, BSA; test: Tryptic digestion of BSA followed with SYPROorange; conditions: SYPROorange reporter dye
Method: • As per Example 2 above. • SYPROorange (24 mM in DMSO, Molecular Probes) diluted to 100-fold in 50 mM bicine
As per Example 2 except the Fluorostar plate reader was set to 480 nm excitation and 600 (±10 nm) bandpass emission filter.

T1 sequence (P02769 25-607): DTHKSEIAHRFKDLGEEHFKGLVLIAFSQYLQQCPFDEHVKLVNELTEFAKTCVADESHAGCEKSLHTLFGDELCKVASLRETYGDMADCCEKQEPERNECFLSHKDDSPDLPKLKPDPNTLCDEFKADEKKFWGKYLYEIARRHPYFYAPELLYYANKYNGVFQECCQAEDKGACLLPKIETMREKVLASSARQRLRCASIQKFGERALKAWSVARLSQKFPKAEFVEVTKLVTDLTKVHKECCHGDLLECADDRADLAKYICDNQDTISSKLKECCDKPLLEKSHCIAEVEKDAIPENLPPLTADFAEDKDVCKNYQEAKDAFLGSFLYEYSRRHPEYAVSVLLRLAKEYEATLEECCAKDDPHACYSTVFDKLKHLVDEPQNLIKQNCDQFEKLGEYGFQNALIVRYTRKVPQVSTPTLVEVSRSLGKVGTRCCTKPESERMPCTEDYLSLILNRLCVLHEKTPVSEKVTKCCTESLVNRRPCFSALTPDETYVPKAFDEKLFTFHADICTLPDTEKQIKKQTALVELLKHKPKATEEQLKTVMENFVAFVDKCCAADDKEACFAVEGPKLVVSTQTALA

B1: trypsin: Proteomics grade trypsin protease, Sigma-Aldrich T6567 (protein, UniProt P00761 9-231, looked up)
Trypsin: IVGGYTCAANSIPYQVSLNSGSHFCGGSLINSQWVVSAAHCYKSRIQVRLGEHNIDVLEGNEQFINAAKIITHPNFNGNTLDNDIMLIKLSSPATLNSRVATVSLPRSCAAAGTECLISGWGNTKSSGSSYPSLLQCLKAPVLSDSSCKSSYPGQITGNMICVGFLEGGKDSCQGDSGGPVVCNGQLQGIVSWGYGCAQKNKPGVYTKVCNYVNWIQQTIAAN
- pseudo-first order rate constant for digestion of BSA (BSA [1]): 0.3 min⁻¹
- pseudo-first order rate constant for digestion of BSA (BSA [2]): 0.1 to 0.2 min⁻¹
- digestion of BSA by SDS-PAGE (BSA [3]): complete digestion
- apparent first order rate constant for tryptic digestion (BSA [4]): 0.1302 min⁻¹
- apparent first order rate constant for tryptic digestion (BSA [5]): 0.1466 min⁻¹
